Assay [1] addresses native red deer GDF9 (red deer (endogenous in red deer oocytes)). Nature of the assay: cross-linking; oocyte lysates of sheep, red deer and pig; 2 mM BS3, room temperature, 30 min, reducing SDS-PAGE, beside non-reducing and reducing lanes without cross-linker; Western blot with Mab61A or Mab37A. For orientation: In western blotting, separated proteins are transferred to a membrane and probed.

The target in assay [2] is recombinant pig BMP15 (pig). In words: cross-linking; recombinant HEK-293 conditioned media (positive control lanes); 2 mM BS3, room temperature, 30 min; reducing SDS-PAGE; Western blot with Mab61A (BMP15) or Mab37A (GDF9).
The target of assay [3] is recombinant pig GDF9 (pig) (UniProt Q6GUA6). The assay is described as above.
Another assay deals with T1, recombinant ovine GDF9 (sheep (ovine), UniProt O77681 319-453).
T1 construct: also called recovGDF9; sheep GDF9; source: 293H-secreted media, dialysed and concentrated (partially purified)
T1 sequence (looked up): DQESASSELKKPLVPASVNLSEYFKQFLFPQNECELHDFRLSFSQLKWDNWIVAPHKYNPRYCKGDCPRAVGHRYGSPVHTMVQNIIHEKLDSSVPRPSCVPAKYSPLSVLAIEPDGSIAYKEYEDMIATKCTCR
In words: SPR; ProteOn XPR36; biotinylated hBMPR2 captured (~200 RU) on a streptavidin-coated GLC chip; log2 serial dilutions of partially purified (dialysed, concentrated) 293H-secreted GDF9 or BMP15 as analytes; 25 °C, 100 µl/min; 10 mM HEPES, 500 mM NaCl, 3.4 mM EDTA, 0.005% Tween 20; association 120 s; analyte concentrations not known. Conditions: one partner purified. On the technique in general: Surface plasmon resonance follows binding to a sensor surface in real time, without labels.

Stoichiometry N and Kd data for 4 molecules are collected here from paper PMC10725505, “Molecular forms of BMP15 and GDF9 in mammalian species that differ in litter size” (Scientific Reports, 2023).

As usually defined, the stoichiometry N is the number of molecules, sites or subunits per partner or assembly. By Kd is commonly meant a measure of binding affinity in units of concentration.

Molecule native red deer GDF9 (natural protein) showed a stoichiometry N in assay [1] of 2.

On to recombinant pig BMP15 (ligand), for which the stoichiometry N in assay [2] worked out at 2.

Take “recombinant pig GDF9 (from UniProt Q6GUA6 1-444) (ligand)”: the stoichiometry N in assay [3] came to 2.

B1: recombinant human (h)BMPR2 ectodomain (receptor, UniProt Q13873 27-151, looked up)
chain: SQNQERLCAFKDPYQQDLGIGESRISHENGTILCSKGSTCYGLWEKSKGDINLVKQGCWSHIGDPQECHYEECVVTTTPPSIQNGTYRFCCCSTDLCNVNFTENFPPPDTTPLSPPHSFNRDETI
modifications: N-biotinylated using EZ-Link sulfo-NHS-LC-biotin (1:1.2 molar ratio)
notes: human BMPR2, extracellular domain, amino acids 27 to 151; captured on a streptavidin-coated sensor chip by its biotin; also called hBMPR2 ectodomain protein; Type 2 receptor; source: baculoviral infected Sf9 insect cells, purified
As to B1, the dissociation constant (Kd) in the assay with recombinant ovine GDF9 is approximately 1 nM.
